Assay results published in US20210054088A1 (Eli Lilly, published 2021).
Like-named read-outs stand apart in the source and are kept apart here.

T1: hCD137** ((human CD137 amino acids 22-164, ΔC121S)-AAA-FLAG) (human, UniProt Q07011 22-164)
T1 construct: not shown: FLAG tag
T1 chain: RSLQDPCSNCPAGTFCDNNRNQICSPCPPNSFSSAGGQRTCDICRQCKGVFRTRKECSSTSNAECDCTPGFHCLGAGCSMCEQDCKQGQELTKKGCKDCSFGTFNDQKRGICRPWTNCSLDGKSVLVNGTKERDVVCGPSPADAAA

T2: FcγRIIb (UniProt P31994 43-217, limits assumed)
T2 sequence (looked up): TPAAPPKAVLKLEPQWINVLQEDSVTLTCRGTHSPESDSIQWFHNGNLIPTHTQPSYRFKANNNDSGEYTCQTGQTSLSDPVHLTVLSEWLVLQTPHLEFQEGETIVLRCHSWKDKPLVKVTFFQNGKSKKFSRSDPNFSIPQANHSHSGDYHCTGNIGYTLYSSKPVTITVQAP

T3: FcγRIIa(H) (UniProt P12318 36-218, limits assumed)
T3 sequence (looked up): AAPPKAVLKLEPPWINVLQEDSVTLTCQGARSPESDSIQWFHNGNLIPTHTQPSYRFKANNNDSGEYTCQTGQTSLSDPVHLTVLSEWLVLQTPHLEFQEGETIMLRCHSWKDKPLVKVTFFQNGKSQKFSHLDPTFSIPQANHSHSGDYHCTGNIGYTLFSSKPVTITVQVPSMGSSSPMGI


Key:
[1] = target: human CD137 on stably transfected human 293 cells (human, UniProt Q07011 24-255); test: cell-based or functional assay
[2] = target: T4, Recombinant human extracellular CD137-Fc protein (R&D Systems) (human, UniProt Q07011 24-186); test: SPR (Biacore T200), CD137-Fc immobilised, 25° C., 1:1 Langmuir fit
T4 construct: Bought protein; also called human CD137-Fc; not shown: Fc part of the bought fusion protein

[3] = target: T5, human CD137-ECD-C121S-Fc mutant G98Q (human, UniProt Q07011 24-186); test: point ELISA, coated CD137-Fc mutant; mean of absorbance normalised to wild type over eight concentrations;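 note: antibody binding to plate-adsorbed CD137-Fc variants, detected with an HRP-labelled anti-Fab secondary antibody and TMB colour development read as absorbance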
T5 construct: not shown: Fc part

[4] = target: T6, human CD137-ECD-C121S-Fc mutant P27L (human, UniProt Q07011 24-186); test: as above
T6 construct: not shown: Fc part

[5] = target: T7, human CD137-ECD-C121S-Fc mutant K115Q (human, UniProt Q07011 24-186); test: as above
T7 construct: not shown: Fc part

[6] = target: T8, human CD137-ECD-C121S-Fc mutant D63N (human, UniProt Q07011 24-186); test: as above
T8 construct: not shown: Fc part

[7] = target: T9, human CD137-ECD-C121S-Fc mutant A97P (human, UniProt Q07011 24-186); test: as above
T9 construct: not shown: Fc part

[8] = target: T10, human CD137-ECD-C121S-Fc mutant K114E (human, UniProt Q07011 24-186); test: as above
T10 construct: not shown: Fc part

[9] = target: T11, human CD137-ECD-C121S-Fc mutant G98K (human, UniProt Q07011 24-186); test: as above
T11 construct: not shown: Fc part

[10] = target: T12, human CD137-ECD-C121S-Fc mutant Q67V (human, UniProt Q07011 24-186); test: as above
T12 construct: not shown: Fc part

[11] = target: T13, human CD137-ECD-C121S-Fc mutant Q67R (human, UniProt Q07011 24-186); test: as above
T13 construct: not shown: Fc part

[12] = target: T14, human CD137-ECD-C121S-Fc mutant S100T (human, UniProt Q07011 24-186); test: as above
T14 construct: not shown: Fc part

[13] = target: T15, human CD137-ECD-C121S-Fc mutant M101R (human, UniProt Q07011 24-186); test: as above
T15 construct: not shown: Fc part

[14] = target: T16, human CD137-ECD-C121S-Fc mutant Q104K (human, UniProt Q07011 24-186); test: as above
T16 construct: not shown: Fc part

[15] = target: T1, hCD137** (human CD137 amino acids …); test: ELISA, coated hCD137**, anti-Fab detection
Procedure: The wells of a 96 well Immulon® 4HBX ELISA plate are coated overnight with 50 nanograms of hCD137** in 100 microliters of PBS, pH 7.2 with mild agitation at 4° C. […] The wells treated with the anti-CD137 antibodies are then washed and a 1:10000 dilution of HRP-conjugated goat anti-Fab antibody (Jackson ImmunoResearch Laboratories) is added and incubated at room temperature following standard protocol. The wells treated with hCD137L* are then washed and a 1:5000 dilution of HRP-conjugated mouse anti-His antibody (Sigma-Aldrich®) is added and the plates are incubated at room temperature following standard protocol. TMB peroxidase chromogenic substrate and stop solution are used according to manufacturer's instruction for visualization and detection of signals. Absorbance readings are plotted in GraphPad Prism Software Version 6. EC₅₀ values are calculated by nonlinear regression curve fit analysis of the software's One Site-Specific Binding function.

[16] = target: T17, human CD137-ECD-C121S-Fc mutant N42S (human, UniProt Q07011 24-186); test: point ELISA on coated CD137-Fc mutant; % of binding relative to wild-type hCD137
T17 construct: not shown: Fc part

[17] = target: T18, cynomolgus monkey CD137 on stably transfected human 293 cells (cynomolgus monkey, UniProt A9YYE7 24-254); test: flow cytometry on 293 cells expressing cynomolgus monkey CD137, antibody at 0.5 micrograms/mL; MFI of antibody / MFI of control IgG
T18 construct: whole, on cells; also called Cyno-CD137
Source text: The ability of the antibodies disclosed herein to bind to cell surface cynomolgus monkey CD137 can be measured using a flow cytometric assay. Cynomolgus monkey CD137 expressing stable cells are generated by transfecting Cyno-CD137 receptor plasmid DNA into human 293 cells (ATCC) using Lipofectamine™ 2000 reagent (Invitrogen™) per manufacturer's protocol. Stable cells are selected using 0.5 micrograms/mL puromycin in Dulbecoo's Modified Eagle's Medium containing 10% fetal bovine serum and 1% GlutaMAX™. For flow cytometry, confluent adherent cells are detached using Gibco® Cell Dissociation Buffer (Life Technologies), blocked in FACS buffer (phosphate buffered saline containing 3% fetal bovine serum) for 1 h at 4° C., and then transferred into a 96-well round-bottom plate at a density of 1×10⁵ cells/well.
After washing in FACS buffer, secondary antibody R-phycoerythrin conjugated goat anti-human IgG, F(ab′)₂ fragment specific antibody (Jackson ImmunoResearch Laboratories) is added at a 1:200 dilution and cells are incubated at 4° C. for 30 minutes. Cells are washed and live/dead cell staining is performed using LIVE/DEAD® Fixable Far Red Dead Cell Stain kit (Life Technologies) per manufacturer's protocol. […] Flow cytometry data is analyzed using FlowJo® Software. Mean fluorescence intensity (MFI) ratio is calculated as the (MFI of Experimental antibody)/(MFI of the control IgG).

FcγRIIb = target: T2, FcγRIIb; test: MSD assay, Fcγ receptor coated
Procedure: (§1) Briefly, Fcγ receptors are coated onto a Meso Scale plate overnight and serially diluted test antibodies are added to the plate and incubated for 2 h. […] Luminescence is measured on a SECTOR Imager 2400 (Meso Scale Diagnostics) and data is analyzed using GraphPad Prism 7.0 software.

FcγRIIIa(V) = FcγRIIIa(V) (UniProt P08637 17-208, limits assumed); test: MSD assay, Fcγ receptor coated
Procedure: as §1

FcγRIIIa(F) = FcγRIIIa(F) (UniProt P08637 17-208, limits assumed); test: MSD assay, Fcγ receptor coated
Procedure: as §1

FcγRI = FcγRI (UniProt P12314 16-288, limits assumed); test: MSD assay, Fcγ receptor coated
Procedure: as §1

FcγRIIa(H) = target: T3, FcγRIIa(H); test: MSD assay, Fcγ receptor coated
Procedure: as §1

[18] = target: T17, human CD137-ECD-C121S-Fc mutant N42S; test: point ELISA, coated CD137-Fc mutant; mean of absorbance normalised to wild type over eight concentrations;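 note: antibody binding to plate-adsorbed CD137-Fc variants, detected with an HRP-labelled anti-Fab secondary antibody and TMB colour development read as absorbance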
Procedure: (§2) To determine the impact of a mutation on the binding of the antibodies, a point ELISA assay against CD137-Fc wild type and mutants is utilized. The wells of a 96-well Immulon 4HBX ELISA plate are coated overnight with 50 nanograms of human CD137-ECD-C121S-Fc or its mutants in 100 microliters of PBS, pH 7.2 with mild agitation at 4° C. […] The wells are washed and a HRP-conjugated secondary antibody (1:10000 dilution of HRP-conjugated goat anti-Fab antibody (Jackson ImmunoResearch Laboratories) is added and incubated at room temperature following standard protocol. TMB peroxidase chromogenic substrate and stop solution are used according to manufacturer's instruction for visualization and detection of signals. Absorbance readings for each concentration point is normalized by the absorbance of the wild-type interaction. For each mutant, the mean of the normalized ratio for the eight concentrations is determined.

Human C1q = Human C1q (human, UniProt P02745 23-245; P02746 28-253; P02747 29-245); test: ELISA, antibody coated, human C1q added
Procedure: Human C1q in casein buffer is added at a concentration of 10 milligrams/mL and incubated for 2 hrs. Human C1q is detected by incubating the plates with anti-human C1q-HRP (AbD Serotec Inc., 1:200 dilution) for 1 h and the plate is developed using TMB (KPL, Inc.). Absorbance is measured at 450 nm with Synergy Neo2 hybrid multi-mode reader (BioTek®).

[19] = target: T19, human CD137-ECD-C121S-Fc mutant R134Q (human, UniProt Q07011 24-186); test: point ELISA, coated CD137-Fc mutant; mean of absorbance normalised to wild type over eight concentrations
T19 construct: not shown: Fc part

[20] = target: T20, human CD137-ECD-C121S-Fc mutant R130A (human, UniProt Q07011 24-186); test: as above
T20 construct: not shown: Fc part

[21] = target: T21, human CD137-ECD-C121S-Fc mutant I132V (human, UniProt Q07011 24-186); test: as above
T21 construct: not shown: Fc part

[22] = target: T7, human CD137-ECD-C121S-Fc mutant K115Q; test: as above; remark: listed apart in the source
Procedure: as §2

[23] = target: T22, human CD137-ECD-C121S-Fc mutant R130H (human, UniProt Q07011 24-186); test: as above
T22 construct: not shown: Fc part

[24] = target: T4, Recombinant human extracellular …; test: ELISA, coated human CD137-Fc
Procedure: The ability of the antibodies disclosed herein to bind human CD137 can be measured by ELISA. […] Wells are blocked for 2 h with blocking buffer (PBS containing 0.2% bovine serum albumin and 0.05% Tween-20). Wells are washed three times with PBS containing 0.05% Tween-20. […] After washing, the plate is incubated with 100 microliters of goat anti-human IgG F(ab′)2-HRP conjugate (Jackson Immuno Research Laboratories) at room temperature for 45 minutes. The plates are washed and then incubated with 100 microliters of 3,3′, 5,5′-tetra-methylbenzidine. The absorbance at 650 nm is read on a SpectraMax® microplate reader. The half maximal effective concentration (EC₅₀) is calculated using GraphPad Prism 7 software.

T7 sequence (Q07011 24-186 K115Q/C121S): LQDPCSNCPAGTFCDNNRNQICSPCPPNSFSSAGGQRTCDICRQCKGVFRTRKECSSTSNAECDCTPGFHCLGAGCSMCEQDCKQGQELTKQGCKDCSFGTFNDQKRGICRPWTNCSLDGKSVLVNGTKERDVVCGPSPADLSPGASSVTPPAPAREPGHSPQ
human CD137 on stably transfected human 293 cells, sequence (Q07011 24-255 limits assumed): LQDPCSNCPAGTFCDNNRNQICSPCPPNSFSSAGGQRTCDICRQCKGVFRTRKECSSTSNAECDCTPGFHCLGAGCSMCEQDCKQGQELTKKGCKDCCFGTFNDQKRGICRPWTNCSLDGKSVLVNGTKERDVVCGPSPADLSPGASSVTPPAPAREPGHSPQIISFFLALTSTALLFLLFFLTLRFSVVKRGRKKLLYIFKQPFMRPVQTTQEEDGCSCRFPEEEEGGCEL
T17 sequence (Q07011 24-186 N42S/C121S): as the sequence (Q07011 24-186 K115Q/C121S) above, with N19S, Q92K counted along it
T9 sequence (Q07011 24-186 A97P/C121S): as the sequence (Q07011 24-186 K115Q/C121S) above, with A74P, Q92K counted along it
T16 sequence (Q07011 24-186 Q104K/C121S): as the sequence (Q07011 24-186 K115Q/C121S) above, with Q81K, Q92K counted along it
T10 sequence (Q07011 24-186 K114E/C121S): as the sequence (Q07011 24-186 K115Q/C121S) above, with K91E, Q92K counted along it
T18 sequence (A9YYE7 entry or part of it): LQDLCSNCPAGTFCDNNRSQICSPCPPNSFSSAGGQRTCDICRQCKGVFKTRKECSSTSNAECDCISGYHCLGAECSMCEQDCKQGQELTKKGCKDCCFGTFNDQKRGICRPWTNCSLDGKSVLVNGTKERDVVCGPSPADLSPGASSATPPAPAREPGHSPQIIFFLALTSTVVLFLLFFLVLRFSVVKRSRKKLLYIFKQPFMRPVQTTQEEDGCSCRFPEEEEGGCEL
T14 sequence (Q07011 24-186 S100T/C121S): as the sequence (Q07011 24-186 K115Q/C121S) above, with S77T, Q92K counted along it
T11 sequence (Q07011 24-186 G98K/C121S): as the sequence (Q07011 24-186 K115Q/C121S) above, with G75K, Q92K counted along it
T6 sequence (Q07011 24-186 P27L/C121S): as the sequence (Q07011 24-186 K115Q/C121S) above, with P4L, Q92K counted along it
T5 sequence (Q07011 24-186 G98Q/C121S): as the sequence (Q07011 24-186 K115Q/C121S) above, with G75Q, Q92K counted along it
T12 sequence (Q07011 24-186 Q67V/C121S): as the sequence (Q07011 24-186 K115Q/C121S) above, with Q44V, Q92K counted along it
T13 sequence (Q07011 24-186 Q67R/C121S): as the sequence (Q07011 24-186 K115Q/C121S) above, with Q44R, Q92K counted along it
T15 sequence (Q07011 24-186 M101R/C121S): as the sequence (Q07011 24-186 K115Q/C121S) above, with M78R, Q92K counted along it
T8 sequence (Q07011 24-186 D63N/C121S): as the sequence (Q07011 24-186 K115Q/C121S) above, with D40N, Q92K counted along it
FcγRIIIa(F), sequence (P08637 17-208 limits assumed): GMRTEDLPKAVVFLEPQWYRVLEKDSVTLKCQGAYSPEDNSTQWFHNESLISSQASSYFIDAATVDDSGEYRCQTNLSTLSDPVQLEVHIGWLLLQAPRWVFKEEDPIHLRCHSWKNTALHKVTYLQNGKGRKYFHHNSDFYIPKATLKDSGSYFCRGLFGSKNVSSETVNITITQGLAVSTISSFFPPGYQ
T22 sequence (Q07011 24-186 C121S/R130H): as the sequence (Q07011 24-186 K115Q/C121S) above, with Q92K, R107H counted along it
T21 sequence (Q07011 24-186 C121S/I132V): as the sequence (Q07011 24-186 K115Q/C121S) above, with Q92K, I109V counted along it
FcγRIIIa(V), sequence (P08637 17-208 F176V limits assumed): as the sequence (P08637 17-208 limits assumed) above, with F160V counted along it
T20 sequence (Q07011 24-186 C121S/R130A): as the sequence (Q07011 24-186 K115Q/C121S) above, with Q92K, R107A counted along it
FcγRI, sequence (P12314 16-288 limits assumed): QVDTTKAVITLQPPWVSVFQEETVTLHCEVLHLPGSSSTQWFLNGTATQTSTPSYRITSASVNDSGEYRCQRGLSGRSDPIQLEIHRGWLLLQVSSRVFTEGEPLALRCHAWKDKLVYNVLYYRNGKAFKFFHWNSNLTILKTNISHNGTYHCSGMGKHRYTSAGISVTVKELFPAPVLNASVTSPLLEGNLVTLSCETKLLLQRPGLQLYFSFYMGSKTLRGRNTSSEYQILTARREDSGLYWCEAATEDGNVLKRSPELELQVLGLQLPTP
T19 sequence (Q07011 24-186 C121S/R134Q): as the sequence (Q07011 24-186 K115Q/C121S) above, with Q92K, R111Q counted along it
Human C1q, sequence (P02745 23-245 limits assumed, chain 1 of 3): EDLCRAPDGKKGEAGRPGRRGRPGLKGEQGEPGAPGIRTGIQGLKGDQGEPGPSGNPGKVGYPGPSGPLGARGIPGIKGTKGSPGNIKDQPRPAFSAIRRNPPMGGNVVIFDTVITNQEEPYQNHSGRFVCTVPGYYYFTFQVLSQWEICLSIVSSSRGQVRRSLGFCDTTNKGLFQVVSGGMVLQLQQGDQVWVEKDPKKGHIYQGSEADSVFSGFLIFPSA
Human C1q, sequence (P02746 28-253 limits assumed, chain 2 of 3): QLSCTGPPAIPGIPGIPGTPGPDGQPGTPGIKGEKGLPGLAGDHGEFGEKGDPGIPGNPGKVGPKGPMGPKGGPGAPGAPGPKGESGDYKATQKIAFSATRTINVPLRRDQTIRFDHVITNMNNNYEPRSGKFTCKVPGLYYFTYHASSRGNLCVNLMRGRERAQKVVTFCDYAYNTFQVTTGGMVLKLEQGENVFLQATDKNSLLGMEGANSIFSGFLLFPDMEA
Human C1q, sequence (P02747 29-245 limits assumed, chain 3 of 3): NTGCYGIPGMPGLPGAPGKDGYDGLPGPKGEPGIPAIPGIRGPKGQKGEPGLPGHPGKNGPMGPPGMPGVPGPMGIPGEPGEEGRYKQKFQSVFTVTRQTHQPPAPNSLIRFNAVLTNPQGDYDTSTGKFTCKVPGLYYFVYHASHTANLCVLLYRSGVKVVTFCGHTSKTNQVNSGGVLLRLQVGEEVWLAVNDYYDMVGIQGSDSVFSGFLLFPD

max activity, NF-kappaB luciferase reporter [1]	Kd [2]	koff [2]	kon [2]	% of binding relative to wild-type hCD137 [3]	% of binding relative to wild-type hCD137 [4]	% of binding relative to wild-type hCD137 [5]	% of binding relative to wild-type hCD137 [6]	% of binding relative to wild-type hCD137 [7]	% of binding relative to wild-type hCD137 [8]	% of binding relative to wild-type hCD137 [9]	% of binding relative to wild-type hCD137 [10]	% of binding relative to wild-type hCD137 [11]	% of binding relative to wild-type hCD137 [12]	% of binding relative to wild-type hCD137 [13]	% of binding relative to wild-type hCD137 [14]	EC50 [15]	MFI ratio [17]	other results	Binder
63.4%	3.33 nM	0.00536 s⁻¹	1.61e+06 M⁻¹ s⁻¹																Antibody A1 (antibody, human IgG1, kappa, Full length form; IgG1 Fc-null, kappa) heavy: not shown light: AIRMTQSPPSLSASVGDRVTITCQASQDIGNSLGWYQQKPGKAPKLVIFDASDLETGVPSRFSGSGSGTDFSLTISSLQPEDFATYYCQQGNSFPLTFGQGTRLEIKRTVAAPSVFIFPPSDEQLKSGTASVVCLLNNFYPREAKVQWKVDNALQSGNSQESVTEQDSKDSTYSLSSTLTLSKADYEKHKVYACEVTHQGLSSPVTKSFNRGEC
115%				100%	85%	100%	100%	100%	100%	100%	100%	100%	100%	100%	100%	0.43 nM		binding result [16]: no binding	BMS20H4.9 (antibody, human IgG4 S228P, kappa, V domains shown, Comparator anti-CD137 antibody, previously described in U.S. Pat. No. 7,288,638) VH: QVQLQQWGAGLLKPSETLSLTCAVYGGSFSGYYWSWIRQSPEKGLEWIGEINHGGYVTYNPSLESRVTISVDTSKNQFSLKLSSVTAADTAVYYCARDYGPGNYDWYFDLWGRGTLVTVSS VL: EIVLTQSPATLSLSPGERATLSCRASQSVSSYLAWYQQKPGQAPRLLIYDASNRATGIPARFSGSGSGTDFTLTISSLEPEDFAVYYCQQRSNWPPALTFGGGTKVEIKR
																	37		PF83 (antibody, V domains shown, Comparator anti-CD137 antibody, previously described in U.S. Pat. No. 8,337,850) VH: EVQLVQSGAEVKKPGESLRISCKGSGYSFSTYWISWVRQMPGKGLEWMGKIYPGDSYTNYSPSFQGQVTISADKSISTAYLQWSSLKASDTAMYYCARGYGIFDYWGQGTLVTVSS VL: SYELTQPPSVSVSPGQTASITCSGDNIGDQYAHWYQQKPGQSPVLVIYQDKNRPSGIPERFSGSNSGNTATLTISGTQAMDEADYYCATYTGFGSLAVFGGGTKLTVLG
72.3%	5.36 nM	0.00713 s⁻¹	1.33e+06 M⁻¹ s⁻¹																Antibody A2 (antibody, human IgG1, kappa, Form lacking the N-terminal alanine of the light chain; IgG1 Fc-null, kappa) heavy: not shown light: IRMTQSPPSLSASVGDRVTITCQASQDIGNSLGWYQQKPGKAPKLVIFDASDLETGVPSRFSGSGSGTDFSLTISSLQPEDFATYYCQQGNSFPLTFGQGTRLEIKRTVAAPSVFIFPPSDEQLKSGTASVVCLLNNFYPREAKVQWKVDNALQSGNSQESVTEQDSKDSTYSLSSTLTLSKADYEKHKVYACEVTHQGLSSPVTKSFNRGEC
	4.67 nM	0.00711 s⁻¹	1.52e+06 M⁻¹ s⁻¹	100%	100%	25%	100%	15%	20%	85%	100%	100%	100%	100%	100%	1.4 nM	153	EC50 (FcγRIIb): > 134 nM; EC50 (FcγRIIIa(V)): > 134 nM; EC50 (FcγRIIIa(F)): > 134 nM; EC50 (FcγRI): > 5 nM; EC50 (FcγRIIa(H)): > 134 nM; % of binding relative to wild-type hCD137 [18]: 100%; EC50 (Human C1q): > 330 nM; % of binding relative to wild-type hCD137 [19]: 100%; % of binding relative to wild-type hCD137 [20]: 100%; % of binding relative to wild-type hCD137 [21]: 100%; % of binding relative to wild-type hCD137 [22]: 25%; % of binding relative to wild-type hCD137 [23]: 100%; EC50 [24]: 0.027 nM	Antibody A1/2 (antibody, human IgG1, kappa, Human IgG1 Fc-null, kappa; also called Antibody 1/2) heavy: not shown light: IRMTQSPPSLSASVGDRVTITCQASQDIGNSLGWYQQKPGKAPKLVIFDASDLETGVPSRFSGSGSGTDFSLTISSLQPEDFATYYCQQGNSFPLTFGQGTRLEIKRTVAAPSVFIFPPSDEQLKSGTASVVCLLNNFYPREAKVQWKVDNALQSGNSQESVTEQDSKDSTYSLSSTLTLSKADYEKHKVYACEVTHQGLSSPVTKSFNRGEC
